US20190300590A1 (PROTAGONIST THERAPEUTICS, published 2019)
Blank lines part the entries; values can stand above or below the binder they belong to. Bridges are numbered along the chain shown (N, C = ends). [ ]: non-standard residue; d: D form. Pen = CC(C)(S)[C@H](N)C(=O)O

What was measured:
Rat IL-23R_huFC [1] = target: Rat IL-23R_huFC (rat); experiment: rat ELISA vs IL-23
IL23R_huFC [2] = target: T1, IL23R_huFC (human, UniProt Q5VWK5 24-353); experiment: human ELISA vs IL-23
T1 sequence (looked up): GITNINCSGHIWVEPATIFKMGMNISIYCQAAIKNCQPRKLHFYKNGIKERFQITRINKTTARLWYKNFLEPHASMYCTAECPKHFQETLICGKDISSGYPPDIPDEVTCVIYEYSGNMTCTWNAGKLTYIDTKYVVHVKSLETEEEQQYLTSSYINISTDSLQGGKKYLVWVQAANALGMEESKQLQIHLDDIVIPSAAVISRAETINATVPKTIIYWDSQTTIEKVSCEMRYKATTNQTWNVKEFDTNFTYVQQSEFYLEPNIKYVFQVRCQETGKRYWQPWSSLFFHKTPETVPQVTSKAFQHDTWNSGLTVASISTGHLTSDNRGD

IL23R_huFC [3] = target: T1, IL23R_huFC; experiment: human ELISA vs IL-23; remark: listed apart in the source
IL23R_huFC [4] = target: T2, IL23R_huFC (human, UniProt Q5VWK5 24-353); experiment: IL23-IL23R competitive ELISA, IC50 grade
T2 sequence (looked up): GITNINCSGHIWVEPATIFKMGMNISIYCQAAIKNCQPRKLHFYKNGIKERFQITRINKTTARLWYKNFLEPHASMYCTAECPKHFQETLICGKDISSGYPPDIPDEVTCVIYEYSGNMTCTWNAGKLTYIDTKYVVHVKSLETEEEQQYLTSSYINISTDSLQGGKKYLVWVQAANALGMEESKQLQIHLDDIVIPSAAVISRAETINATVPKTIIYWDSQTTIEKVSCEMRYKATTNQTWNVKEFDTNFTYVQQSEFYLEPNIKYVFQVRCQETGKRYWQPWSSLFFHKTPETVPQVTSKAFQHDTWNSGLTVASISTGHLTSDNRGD

[5] = target: mixture of IL-12Rβ1_huFC and IL-23R_huFC (mixed surface) (human, UniProt P42701 24-540; Q5VWK5 24-353, limits assumed); experiment: SPR, mixed surface of IL-12Rβ1 and IL-23R
IL23R_huFC [6] = target: T2, IL23R_huFC; experiment: IL23-IL23R competitive ELISA, IC50 grade; remark: listed apart in the source
IL23R_huFC [7] = target: T2, IL23R_huFC; experiment: IL23-IL23R competitive ELISA
Cyno IL-23R_huFC = target: T3, Cyno IL-23R_huFC (cyno, UniProt G7NWY5 24-353); experiment: IL-23/IL-23R competitive binding ELISA, cyno
T3 sequence: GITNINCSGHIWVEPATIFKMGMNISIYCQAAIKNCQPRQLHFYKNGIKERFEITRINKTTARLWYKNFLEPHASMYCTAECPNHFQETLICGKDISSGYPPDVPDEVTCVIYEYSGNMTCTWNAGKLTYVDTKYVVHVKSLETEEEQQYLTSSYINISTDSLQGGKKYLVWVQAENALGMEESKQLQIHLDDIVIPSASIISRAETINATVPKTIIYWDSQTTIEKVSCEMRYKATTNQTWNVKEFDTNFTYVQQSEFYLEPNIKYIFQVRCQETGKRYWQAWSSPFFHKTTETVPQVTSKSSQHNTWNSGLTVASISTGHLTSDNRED

[8] = target: T4, Recombinant human IL-23R_huFC (RnD) (human, UniProt Q5VWK5 24-353); experiment: IL-23/IL-23R competitive binding ELISA, human
T4 sequence (looked up): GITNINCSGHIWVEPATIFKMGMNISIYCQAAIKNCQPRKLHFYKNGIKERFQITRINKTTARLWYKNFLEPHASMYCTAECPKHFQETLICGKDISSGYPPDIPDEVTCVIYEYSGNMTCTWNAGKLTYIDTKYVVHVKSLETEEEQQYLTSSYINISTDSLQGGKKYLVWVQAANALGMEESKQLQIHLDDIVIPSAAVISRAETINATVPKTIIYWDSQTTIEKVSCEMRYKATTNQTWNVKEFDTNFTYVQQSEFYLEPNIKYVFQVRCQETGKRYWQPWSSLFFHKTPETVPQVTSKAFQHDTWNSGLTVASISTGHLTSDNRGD

Rat IL-23R_huFC [9] = target: Rat IL-23R_huFC (rat); experiment: IL-23/IL-23R competitive binding ELISA, rat

IC50 (Rat IL-23R_huFC [1]): 100 to 1000 nM
IC50 (IL23R_huFC [2]): 100 to 1000 nM
Binder: CQTWQXYWLENG (as bracketed in name; cyclized via Cys and Pen) [Ac-CQTWQ-[Pen]-YW-[α-MeLeu]-ENG-NH2]

IC50 (IL23R_huFC [3]): 1000 to 10000 nM
B1: Ac-CQTWQ-[Pen]-YW-[(D)Asn]-ENG-NH2 (peptide)
peptide: Ac-CQTWQ[Pen]YW[dN]ENG-NH2
modifications: disulfide 1-6
SMILES: CC(=O)N[C@H]1CSSC(C)(C)[C@@H](C(=O)N[C@@H](Cc2ccc(O)cc2)C(=O)N[C@@H](Cc2c[nH]c3ccccc23)C(=O)N[C@H](CC(N)=O)C(=O)N[C@@H](CCC(=O)O)C(=O)N[C@@H](CC(N)=O)C(=O)NCC(N)=O)NC(=O)[C@H](CCC(N)=O)NC(=O)[C@H](Cc2c[nH]c3ccccc23)NC(=O)[C@H]([C@@H](C)O)NC(=O)[C@H](CCC(N)=O)NC1=O

IC50 (IL23R_huFC [4]): 25 to 100 nM
Binder: CADWVCYWHTFGAK (not fully specified; Ac-; [β-Ala]; [(D)Lys]; DIG through Lysine) [(Ac-CADWVCYWHTFG-[β-Ala]-[(D)Lys]-OH)2DIG]

fold of affinity against Compound C [5]: ~14 fold
B2: Recombinant human IL-23 (Humanzyme) (ligand)
chain 1: RAVPGGSSPAWTQCQQLSQKLCTLAWSAHPLVGHMDLREEGDEETTNDVPHIQCGDGCDPQGLRDNSQFCLQRIHQGLIFYEKLLGSDIFTGEPSLLPDSPVGQLHASLLGLSQLLQPEGHHWETQQIPSLSPSQPWQRLLLRFKILRSLQAFVAVAARVFAHGAATLSP
chain 2: IWELKKDVYVVELDWYPDAPGEMVVLTCDTPEEDGITWTLDQSSEVLGSGKTLTIQVKEFGDAGQYTCHKGGEVLSHSLLLLHKKEDGIWSTDILKDQKEPKNKTFLRCEAKNYSGRFTCWWLTTISTDLTFSVKSSRGSSDPQGVTCGAATLSAERVRGDNKEYEYSVECQEDSACPAAEESLPIEVMVDAVHKLKYENYTSSFFIRDIIKPDPPKNLQLKPLKNSRQVEVSWEYPDTWSTPHSYFSLTFCVQVQGKSKREKKDRVFTDKTSATVICRKNASISVRAQDRYYSSSWSEWASVPCS

IC50 (IL23R_huFC [6]): 100 to 1000 nM
IC50 (IL23R_huFC [7]): 500 to 1000 nM
Binder: H-CADWVCYWHTFG-NH2 (disulfide 1-6 (inferred)) [Hy-CADWVCYWHTFG-NH2]

IC50 (Cyno IL-23R_huFC): 2 nM
IC50 [8]: 2 nM
IC50 (Rat IL-23R_huFC [9]): 2 nM
B3: Peptide 993 (peptide)
peptide: RXQTWQCFXXENN
modifications: Ac-[(D)Arg]-Cyclo-[[Abu]-QTWQC]-[Phe[4-(2-aminoethoxy)]]-[2-Nal]-[4-amino-4-carboxy-tetrahydropyran]-ENN-NH2; cyclized by Abu-Cys thioether
